Assay results: patent EP4349860A1

Columns and labels:
Experiment in all cases: cell-based or functional assay
[1] = molecular target: SARS-CoV-2 spike protein, Beta (B.1.351) variant, on pseudovirus (SARS-CoV-2 (Beta variant))
[2] = molecular target: SARS-CoV-2 spike protein, Delta (B.1.617.2) variant, on pseudovirus (SARS-CoV-2 (Delta variant))
[3] = molecular target: SARS-CoV-2 spike protein, Omicron BA.2 variant, on pseudovirus (SARS-CoV-2 (Omicron BA.2 variant))
[4] = molecular target: SARS-CoV-2 spike protein, Alpha (B.1.1.7) variant, on pseudovirus (SARS-CoV-2 (Alpha variant))
[5] = molecular target: SARS-CoV-2 spike protein, Gamma (P.1) variant, on pseudovirus (SARS-CoV-2 (Gamma variant))
[6] = molecular target: SARS-CoV-2 spike protein, Omicron BA.4/BA.5 variants, on pseudovirus (SARS-CoV-2 (Omicron BA.4/BA.5 variants))

## S2E12 (antibody)
[1]
  IC50 (µg/ml), pseudotyped virus neutralization: < 0.0003 µg/mL
[2]
  IC50 (µg/ml), pseudotyped virus neutralization: < 0.0003 µg/mL
[3]
  IC50 (µg/ml), pseudotyped virus neutralization: 0.137 µg/mL
[4]
  IC50 (µg/ml), pseudotyped virus neutralization: 0.0004 µg/mL
[5]
  IC50 (µg/ml), pseudotyped virus neutralization: 0.0003 µg/mL
[6]
  IC50 (µg/ml), pseudotyped virus neutralization: > 1 µg/mL

## S309 (antibody)
[1]
  IC50 (µg/ml), pseudotyped virus neutralization: 0.0043 µg/mL
[2]
  IC50 (µg/ml), pseudotyped virus neutralization: 0.0336 µg/mL
[3]
  IC50 (µg/ml), pseudotyped virus neutralization: 0.416 µg/mL
[4]
  IC50 (µg/ml), pseudotyped virus neutralization: 0.0347 µg/mL
[5]
  IC50 (µg/ml), pseudotyped virus neutralization: 0.0083 µg/mL
[6]
  IC50 (µg/ml), pseudotyped virus neutralization: 0.142 µg/mL
